± gives the standard error. This sample holds only a part of the variants without activity.
B1: glmS ribozyme (parent)
chain: AUAAAAGCGCCAGAACUACAGAAAUGUAGUUGACGAGGAGGAGGUUUAUCGAAUUUUCGGCGGAUGCCUCCAAA

Variants of: B1
Assay: self-cleavage kobs at 640 uM GlcN6P; higher = faster cleavage; RNA array
Settings: with glucosamine-6-phosphate
Method in brief: (§1)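 Barcoded ribozyme variants on sequenced MiSeq chips were transcribed in situ by E. coli RNA polymerase and followed at 37 °C through a hybridised Cy3 probe. Glucosamine-6-phosphate at 40 μM to 10 mM in HEPES/KCl/Mg(OAc)2 buffer was flowed in, and tiles were imaged over ~14 h. Signals were normalised to baseline and to non-cleaving reference variants, and per-tile medians were fit to one- or two-exponential decays to give kobs. Weighted Michaelis–Menten fits across concentrations gave kcat and KM.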

Point of comparison: AUAAAAGCGCCAGAACUACAGAAAUGUAGUUGACGAGGAGAAGGCUUAUCGAAUUUUCGGCGGAUGCCUACAAA [G41A U45C C70A], “self-cleavage kobs at 640 uM GlcN6P” value 5.47e-05 ± 1.8e-05 s⁻¹. Against it:
- AUAAAAGCGCCAUGACUACAGAAAUGUAGUUGACGAGGAGGCGGUUUAUCGAAUUUUCGGCGGAUGCCUCCAAA [G13U A14G A42C] — lower, < 1e-05 s⁻¹
- AUAAAAGCGACAGAACUACAGAAAUGUAGUUGACGAGGAGGAGAUUCAUCGAAUUUUCGGCGGAUGCCUCCAAA [C10A G44A U47C] — lower, < 1e-05 s⁻¹
- AUAAAAGCGCCAGAACUACAUAAAUGUAGUUGACGAGGAGGAGGUGUACCGAAUUUUCGGCGGAUGCCUCCAAA [G21U U46G U49C] — lower, < 1e-05 s⁻¹
- AUAAAAGCGACAGAACUACAGAAAUGUAGUUCAUGAGGAGGAGGUUUAUCGAAUUUUCGGCGGAUGCCUCCAAA [C10A G32C C34U] — lower, < 1e-05 s⁻¹
- AUAAAAGCGCCAGAACUACAGAAAUGUAGUUGGCGGGGAGGAGGUUGAUCGAAUUUUCGGCGGAUGCCUCGAAA [A33G A36G U47G C71G] — 2.2-fold higher, 0.000121 ± 4.4e-05 s⁻¹
- AUAAAAGCGCAAGAACUACAGAAAUGUAGUUGCCGAGGGGGAGGGUUAUCGAAUUUUCGGCGGAUGCCUCCAAA [C11A A33C A39G U45G] — lower, < 1e-05 s⁻¹
- AUAAAAGCGCCAGAACUACAGAAAUGUAGUUGACGUGGAGGAGGUUUAUCGGAUUUUCGGCCGAUGCCUCAAAA [A36U A52G G62C C71A] — lower, < 1e-05 s⁻¹
- AUAAAAAUGCCAUACCUACAGAAAUGUAGUUGACGAGGCGGAGGUUUAUCGAAUGUACGGCGGAUGCCUCCAAA [G7A C8U G13U A15C A39C U55G U57A] — lower, < 1e-05 s⁻¹
- AUAAAAGCGCCAGAACUACAGAAAUGUAGUUGACUAGGAGGAGGUUUAUCGAAUUUUCGGCGGAUGGGUCCAAA [G35U C67G C68G] — within error, 6.14e-05 ± 2.2e-05 s⁻¹
- AUAAAAGCGCCAGAACUACAGAAAUGUAGUUGACGAGGAGGUGGUUUAUCGAAUUUUCGGUGGAUGUCUCCAAA [A42U C61U C67U] — lower, < 1e-05 s⁻¹
- AUAAAAUCGCCCGAACUACAGAAAUGUAGUUGACGAGGAGGAGGUUUACCGAAUUUUCGGCGGAUGCCUCCAAA [G7U A12C U49C] — lower, < 1e-05 s⁻¹
- AUAAAAGCGCCAGACCUACAGAAAUGUAGUUGACGAGGAGGAGGUUUAUCGAAUUUUCGGCGGCUGCCUCUAAA [A15C A64C C71U] — lower, < 1e-05 s⁻¹
- AUAAAAGCGCCAGAACUACAGAAAUGUAGUUGACGAGGAGGAGGUUUAUCGCUUUUUCGGCGGAUGUUUCCAAA [A52C A53U C67U C68U] — within error, 6.36e-05 ± 3e-05 s⁻¹
- AUAAAAGCGCCAGAACUACAGAAAUGUAGUUGACGAGGAGGCUUUUUAUCUAAUUUUCGGCGGAUGCCUCCAAA [A42C G43U G44U G51U] — lower, < 1e-05 s⁻¹
- AUAAAAGCGCCAUAACUACAGAAAUGUAGUUGACGAGGAGGAGGUUUAUCGAAUUUUCGGCGGAUGCCCCCAAA [G13U U69C] — within error, 7.4e-05 ± 2.2e-05 s⁻¹
- AUAAAAGCGCCAGAACUACAGAAAUGUAAGUGACAAGGUGGAGGUUUAUCGAAUUUUCGGCGGAUGCCUCCAAA [G29A U30G G35A A39U] — lower, < 1e-05 s⁻¹
- AUAAAAGCGCCAGAACUACAGAAAUGUAUUUGAUGAGGAGGAGGUUGAUCGAAUUUUCGGCGGAUGCUUCCAAA [G29U C34U U47G C68U] — within error, 5.56e-05 ± 2.3e-05 s⁻¹
- AUAAAAGCGCCAGAUCUACAGAAAUGUAGGUGACGAGGAGGAGGUUUAUCGAAUUUUCGGCGGAUGCCACCAAA [A15U U30G U69A] — 2.1-fold higher, 0.000116 ± 2.5e-05 s⁻¹
- AUAAAAGCGCCAGAUCUACAGAAAUGUAGUUGACGAGGAGAAGUUUUAUUGAAUUUUCGGCGGAUGCCUCCAAA [A15U G41A G44U C50U] — lower, < 1e-05 s⁻¹
- AUAAAAGCGACAGAACUACAGAAAUGUAGUUGACGUGGAGGAGGUUUAUCGAAUUUUCGGCGGAUGCAUCCAAA [C10A A36U C68A] — 4.1-fold higher, 0.000222 ± 9e-05 s⁻¹
- AUAAAAGCGCCAGAACUACAGAAAUGUAUUUGACGAGGAGGACGUUUAUCGAAUUCUCGGCGGAUGCCUCCAAA [G29U G43C U56C] — lower, < 1e-05 s⁻¹
- AUAAAAGCGCCCGACCUACAGAAAUGUAGGUGACGAGGAGGAGGUUUAGCGAAUUUUCAGCGGGUGCCUCCAAA [A12C A15C U30G U49G G59A A64G] — lower, < 1e-05 s⁻¹
- AUAAAAGCGCCAGAUCUACAGAAAUGUAGAUGACGAGGAGGAGGUUUAUCGAAUUUUCGGCGGAUGCAUCCAAA [A15U U30A C68A] — 2.4-fold higher, 0.000134 ± 5.1e-05 s⁻¹
- AUAAAAGCGCCAGAACUACAGAAAUGUAGUUAACGAGGAGGAGGUUUAUCGAGUUGUCGGCGGAUGCCUCCAAA [G32A A53G U56G] — within error, 7.56e-05 ± 2.8e-05 s⁻¹
- AUAAAUGCGCCAGAACUACAGAAAUGUAGUUGAAGAGGAGGAGUUUUAUCGAAUUUUCGGCGGAUGUCUCCAAA [A6U C34A G44U C67U] — lower, < 1e-05 s⁻¹

Variants of: B1
Assay: self-cleavage kobs at 2500 uM GlcN6P; higher = faster cleavage; RNA array
Settings: with glucosamine-6-phosphate
Method in brief: as §1

Point of comparison: AUAAAAGCGCCAGAUCUACAGAAAUGUAGGUGACGAGGAGGAGGUUUAUCGAAUUUUCGGCGGAUGCCACCAAA [A15U U30G U69A], “self-cleavage kobs at 2500 uM GlcN6P” value 0.000105 ± 2.9e-05 s⁻¹. Against it:
- AUAAAAGCGCCAUGACUACAGAAAUGUAGUUGACGAGGAGGCGGUUUAUCGAAUUUUCGGCGGAUGCCUCCAAA [G13U A14G A42C] — lower, < 1e-05 s⁻¹
- AUAAAAGCGCCAGAACUACAUAAAUGUAGUUGACGAGGAGGAGGUGUACCGAAUUUUCGGCGGAUGCCUCCAAA [G21U U46G U49C] — lower, < 1e-05 s⁻¹
- AUAAAAGCGCAAGAACUACAGAAAUGUAGUUGCCGAGGGGGAGGGUUAUCGAAUUUUCGGCGGAUGCCUCCAAA [C11A A33C A39G U45G] — lower, < 1e-05 s⁻¹
- AUAAAAGCGCCAGAACUACAGAAAUGUAGUUGACGAGGAGGAGGUUUAUCGCUUUUUCGGCGGAUGUUUCCAAA [A52C A53U C67U C68U] — within error, 9.26e-05 ± 4.1e-05 s⁻¹
- AUAAAAGCGCCAUAACUACAGAAAUGUAGUUGACGAGGAGGAGGUUUAUCGAAUUUUCGGCGGAUGCCCCCAAA [G13U U69C] — within error, 0.000149 ± 3e-05 s⁻¹
- AUAAAAGCGCCAGAACUACAGAAAUGUAAGUGACAAGGUGGAGGUUUAUCGAAUUUUCGGCGGAUGCCUCCAAA [G29A U30G G35A A39U] — lower, < 1e-05 s⁻¹
- AUAAAAGCGCCCGACCUACAGAAAUGUAGGUGACGAGGAGGAGGUUUAGCGAAUUUUCAGCGGGUGCCUCCAAA [A12C A15C U30G U49G G59A A64G] — lower, < 1e-05 s⁻¹
- AUAAAAGCGCCAGAUCUACAGAAAUGUAGAUGACGAGGAGGAGGUUUAUCGAAUUUUCGGCGGAUGCAUCCAAA [A15U U30A C68A] — within error, 0.000121 ± 4.8e-05 s⁻¹
- AUAAAAGCGCCAGAACUACAGAAAUGUAGUUAACGAGGAGGAGGUUUAUCGAGUUGUCGGCGGAUGCCUCCAAA [G32A A53G U56G] — 2.6-fold higher, 0.000272 ± 8.6e-05 s⁻¹
- AUAAAUGCGCCAGAACUACAGAAAUGUAGUUGAAGAGGAGGAGUUUUAUCGAAUUUUCGGCGGAUGUCUCCAAA [A6U C34A G44U C67U] — lower, < 1e-05 s⁻¹

Variants of: B1
Assay: self-cleavage kobs at 10000 uM GlcN6P; higher = faster cleavage; RNA array
Settings: with glucosamine-6-phosphate
Method in brief: as §1

For AUAAAAGCGCCAUAACUACAGAAAUGUAGUUGACGAGGAGGAGGUUUAUCGAAUUUUCGGCGGAUGCCCCCAAA [G13U U69C], the “self-cleavage kobs at 10000 uM GlcN6P” value was 0.00027 ± 7.1e-05 s⁻¹.

Reference: the supplement of paper PMC7125110
